Results taken from patent US20240415884A1 (UNIVERSITY OF PITTSBURGH OF THE COMMONWEALTH SYSTEM OF …, published 2024).

T1: 4Ig CD276 polypeptide with his tag (human, UniProt Q5ZPR3 29-466)
T1 construct: extracellular domain; SPR antigen; also called 4Ig CD276-his; not shown: his tag
T1 sequence (looked up): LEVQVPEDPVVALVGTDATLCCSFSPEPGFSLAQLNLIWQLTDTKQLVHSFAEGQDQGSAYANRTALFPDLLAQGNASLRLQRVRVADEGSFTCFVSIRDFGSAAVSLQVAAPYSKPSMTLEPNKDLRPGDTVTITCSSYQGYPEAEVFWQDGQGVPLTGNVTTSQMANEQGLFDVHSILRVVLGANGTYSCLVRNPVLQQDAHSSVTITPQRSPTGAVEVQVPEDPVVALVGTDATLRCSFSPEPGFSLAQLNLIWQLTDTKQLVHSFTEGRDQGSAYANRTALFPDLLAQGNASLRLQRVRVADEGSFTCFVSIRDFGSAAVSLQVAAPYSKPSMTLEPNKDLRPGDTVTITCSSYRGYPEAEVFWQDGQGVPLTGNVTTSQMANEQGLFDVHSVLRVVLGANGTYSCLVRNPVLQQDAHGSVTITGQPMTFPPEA

T2: recombinant CD276 polypeptide that included four Ig-like extracellular domains (human, UniProt Q5ZPR3 29-466)
T2 construct: extracellular domain; also called 4Ig CD276 polypeptide; a CD276 polypeptide
T2 sequence (looked up): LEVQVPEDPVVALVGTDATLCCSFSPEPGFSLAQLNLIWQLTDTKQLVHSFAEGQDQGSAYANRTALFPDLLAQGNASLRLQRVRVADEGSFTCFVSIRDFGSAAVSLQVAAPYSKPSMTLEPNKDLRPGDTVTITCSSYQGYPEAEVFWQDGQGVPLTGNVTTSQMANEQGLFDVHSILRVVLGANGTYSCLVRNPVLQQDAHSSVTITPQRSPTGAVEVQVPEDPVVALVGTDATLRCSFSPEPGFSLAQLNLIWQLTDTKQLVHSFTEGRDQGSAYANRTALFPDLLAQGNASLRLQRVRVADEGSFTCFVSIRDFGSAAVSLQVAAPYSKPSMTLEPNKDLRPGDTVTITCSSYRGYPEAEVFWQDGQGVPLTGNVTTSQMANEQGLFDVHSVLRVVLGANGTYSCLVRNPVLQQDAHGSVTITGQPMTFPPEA

T3: 4Ig CD276 polypeptide with Fc tag (human, UniProt Q5ZPR3 29-466)
T3 construct: extracellular domain; SPR antigen; also called 4Ig CD276-Fc; not shown: Fc tag
T3 sequence (looked up): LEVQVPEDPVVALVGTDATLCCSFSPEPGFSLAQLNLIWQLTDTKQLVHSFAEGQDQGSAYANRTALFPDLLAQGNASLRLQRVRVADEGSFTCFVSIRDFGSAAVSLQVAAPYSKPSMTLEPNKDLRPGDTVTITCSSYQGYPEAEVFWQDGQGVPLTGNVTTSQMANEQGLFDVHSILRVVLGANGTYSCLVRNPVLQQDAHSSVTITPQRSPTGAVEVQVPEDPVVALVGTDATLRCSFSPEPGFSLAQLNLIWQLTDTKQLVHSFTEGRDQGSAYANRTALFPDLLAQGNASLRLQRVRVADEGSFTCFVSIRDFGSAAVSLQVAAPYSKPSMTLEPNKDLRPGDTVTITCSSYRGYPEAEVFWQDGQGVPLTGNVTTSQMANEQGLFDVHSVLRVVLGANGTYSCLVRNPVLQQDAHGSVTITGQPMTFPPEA

T4: human CD276 polypeptide (antigen of the ELISA of Clones #1-#8) (human, UniProt Q5ZPR3 29-461, limits assumed)
T4 construct: For panning it was fused at its C-terminus to human IgG1 Fc (CD276-Fc); also called B7-H3
T4 sequence: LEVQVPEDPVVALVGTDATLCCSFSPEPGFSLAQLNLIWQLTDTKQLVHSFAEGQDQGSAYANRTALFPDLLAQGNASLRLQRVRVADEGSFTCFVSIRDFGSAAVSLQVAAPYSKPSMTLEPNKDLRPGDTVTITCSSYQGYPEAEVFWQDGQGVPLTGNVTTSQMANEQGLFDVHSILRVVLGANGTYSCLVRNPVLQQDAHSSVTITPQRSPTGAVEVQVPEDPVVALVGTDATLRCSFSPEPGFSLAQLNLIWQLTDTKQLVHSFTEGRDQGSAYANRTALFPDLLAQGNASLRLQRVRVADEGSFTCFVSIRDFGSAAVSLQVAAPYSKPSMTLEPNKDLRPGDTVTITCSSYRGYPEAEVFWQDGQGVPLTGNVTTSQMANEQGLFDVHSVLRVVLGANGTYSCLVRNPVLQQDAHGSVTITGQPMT


What was measured:
[1] = biological target: T1, 4Ig CD276 polypeptide with his tag; assay: SPR, panel CD276-His; sensorgrams with fits, response up to about 12 RU; which partner is on the chip is not stated
[2] = biological target: T2, recombinant CD276 polypeptide that …; assay: ELISA on recombinant CD276 polypeptide with four Ig-like extracellular domains (FIG. 28)
Procedure: Clones #9 and #10, two VH binders, bound to a CD276 polypeptide with EC₅₀ values of 8.1 and 1.2 nM, respectively, as tested by ELISA. […] The molecular weight of these two clones were validated by mass spectrum. The binding kinetics of clone #9 and #10 to the 4Ig CD276 polypeptide with both his tag and Fc tag were measured by surface plasmon resonance. […] See, FIGS. 28-32.

[3] = biological target: T3, 4Ig CD276 polypeptide with Fc tag; assay: SPR, panel CD276-Fc; sensorgrams with fits, response up to about 11 RU; which partner is on the chip is not stated
[4] = biological target: T1, 4Ig CD276 polypeptide with his tag; assay: SPR, panel CD276-His; sensorgrams with fits, response up to about 18 RU; which partner is on the chip is not stated
[5] = biological target: T3, 4Ig CD276 polypeptide with Fc tag; assay: SPR, panel CD276-Fc; sensorgrams with fits, response up to about 15 RU; which partner is on the chip is not stated
[6] = biological target: T4, human CD276 polypeptide (antigen of the …); assay: ELISA on a human CD276 polypeptide

Binder	EC50 [6] [nM]	further results
Clone #9 (ab9) (VHH, also called A10; #9 (VH domain)) VHH: EVQLVESGGGVVQPGRSLRLSCAASGFTFSSYAMHWVRQAPGQGLEWVSTIGPRGINTHYADSVKGRFTISRDNSKNTLYLQMNSLRAEDTATYYCARDRVGYNSYGMDVWGQGTMVTVSS		Kd [1]: 6 nM; EC50 [2]: 8.1 nM; Kd [3]: 5.3 nM
Clone #10 (ab10) (VHH, also called C7; #10 (VH domain)) VHH: EVQLVESGGGVVQPGRSLRLSCAASGFTFSSYAMHWVRQAPGKGLEWIGEIYHGGSTDYNPSLKSRVTISRDDSTNTLYLQMNSLRAEDTAVYYCTRGGKRLLSVYGVDVWGQGTMVTVSS		Kd [4]: 7.83 nM; EC50 [2]: 1.2 nM; Kd [5]: 5.2 nM
Clone #1 (ab1) (Fab, V domains shown, also called #1 (Fab)) VH: QVQLVESGGGLVKPGGSLRLSCAASGFTFSDYYMSWIRQAPGKGLEWVSYISSSGSTIYYADSVKGRFTISRDNAKNSLYLQMNSLRAEDTAVYYCARGINFGLDIWGQGTTVTVSS VL: DIQMTQSPSSLSASVGDRVTITCRASQSISSYLNWYQQKPGKAPKLLIYAASSLQSGVPSRFSGSGSGTDFTLTISSLQPEDVGVYYCMQALQTLFGQGTKVDIKR	34	
Clone #2 (ab2) (Fab, V domains shown, also called #2 (Fab)) VH: QVQLVESGGGLVKPGGSLRLSCAASGFTFSDYYMSWIRQAPGKGLEWVSYISSSGSTIYYADSVKGRFTISRDNAKNSLYLQMNSLRAEDTAVYYCARRGAMGHHDGFDMWGLGTMVTVSS VL: DIQMTQSPSSLSASVGDRVTITCRASQSISSYLNWYQQKPGKAPKLLIYAASSLQSGVPSRFSGSGSGTDFTLTISSLQPEDVAVYYCQQRSNWPLYTFGQGTKLEIKR	46	
Clone #3 (ab3) (Fab, V domains shown, also called #3 (Fab)) VH: QVQLVESGGGLVKPGGSLRLSCAASGFTFSDYYMSWIRQAPGKGLEWVSYISSSGSTIYYADSVKGRFTISRDNAKNSLYLQMNSLRAEDTAVYYCARRGGSYYARGAFDIWGQGTMVTVSS VL: DIQMTQSPSSLSASVGDRVTITCRASQSISSYLNWYQQKPGKAPKLLIYAASSLQSGVPSRFSGSGSGTDFTLTISSLQPEDAATYYCQHRSDWPPKFTFGPGTKVDIKR	26	
Clone #4 (ab4) (VHH, kind VHH is used for single domain; also called #4 (VH domain)) VHH: EVQLVESGGGLVQPGGSLRLSCAASWFDFQDYDMSWVRQAPGKGLEWIGEINHSGSTNYNPSLKSRVTISRDNSKNTLYLQMNSLRAEDTAVYYCAKIGYWGQGTLVTVSS	0.9	
Clone #7 (ab7) (VHH, also called #7 (VH domain)) VHH: EVQLVESGGGLVQPGGSLRLSCAASGFTFSSYAMSWVRQAPGQGLEWIGEINHSGSTNYNPSLKSRVTISRDNSKNTLYLQMNSLRAEDTAVYYCVHIDYWGQGTLVAVSS	0.6	
Clone #5 (ab5) (VHH, also called #5 (VH domain)) VHH: EVQLVESGGGLVQPGGSLRLSCAASPFPFTIYEMSWVRQASGKALEWIGYINHSGSTNYNPSLKSRVTISRDNSKNTLYLQMNSLRAEDTAMYYCAILAPDYWGQGTLVTVSS	1.2	
Clone #6 (ab6) (VHH, also called #6 (VH domain)) VHH: EVQLVESGGGLVQPGGSLRLSCAASGSPFPHYEMSWVRQAPGKGLEWMGWINTNTGKSTYAQGFTGRFTISRDNSKNTLYLQMNSLRAEDTAVYYCARSGYGYYFDYWGQGTLVTVSS	10	
Clone #8 (ab8) (Fab, V domains shown, also called #8 (Fab)) VH: QVQLVESGGGLVKPGGSLRLSCAASGFTFSDYYMSWIRQAPGKGLEWVSYISSSGSTIYYADSVKGRFTISRDNAKNSLYLQMNSLRAEDTAVYYCARDAPTSGWKWFAPDYWGQGALVTVSS VL: not shown	4	
